In IntAct's records for PubMed 31515488:

B1: Kelch-like protein 3 (Homo sapiens), Q9UH77 (parent)
chain: MEGESVKLSSQTLIQAGDDEKNQRTITVNPAHMGKAFKVMNELRSKQLLCDVMIVAEDVEIEAHRVVLAACSPYFCAMFTGDMSESKAKKIEIKDVDGQTLSKLIDYIYTAEIEVTEENVQVLLPAASLLQLMDVRQNCCDFLQSQLHPTNCLGIRAFADVHTCTDLLQQANAYAEQHFPEVMLGEEFLSLSLDQVCSLISSDKLTVSSEEKVFEAVISWINYEKETRLEHMAKLMEHVRLPLLPRDYLVQTVEEEALIKNNNTCKDFLIEAMKYHLLPLDQRLLIKNPRTKPRTPVSLPKVMIVVGGQAPKAIRSVECYDFEEDRWDQIAELPSRRCRAGVVFMAGHVYAVGGFNGSLRVRTVDVYDGVKDQWTSIASMQERRSTLGAAVLNDLLYAVGGFDGSTGLASVEAYSYKTNEWFFVAPMNTRRSSVGVGVVEGKLYAVGGYDGASRQCLSTVEQYNPATNEWIYVADMSTRRSGAGVGVLSGQLYATGGHDGPLVRKSVEVYDPGTNTWKQVADMNMCRRNAGVCAVNGLLYVVGGDDGSCNLASVEYYNPVTDKWTLLPTNMSTGRSYAGVAVIHKSL
B2: KAT8 regulatory NSL complex subunit 1 (Homo sapiens), Q7Z3B3 (parent)
chain: MAAMAPALTDAAAEAHHIRFKLAPPSSTLSPGSAENNGNANILIAANGTKRKAIAAEDPSLDFRNNPTKEDLGKLQPLVASYLCSDVTSVPSKESLKLQGVFSKQTVLKSHPLLSQSYELRAELLGRQPVLEFSLENLRTMNTSGQTALPQAPVNGLAKKLTKSSTHSDHDNSTSLNGGKRALTSSALHGGEMGGSESGDLKGGMTNCTLPHRSLDVEHTTLYSNNSTANKSSVNSMEQPALQGSSRLSPGTDSSSNLGGVKLEGKKSPLSSILFSALDSDTRITALLRRQADIESRARRLQKRLQVVQAKQVERHIQHQLGGFLEKTLSKLPNLESLRPRSQLMLTRKAEAALRKAASETTTSEGLSNFLKSNSISEELERFTASGIANLRCSEQAFDSDVTDSSSGGESDIEEEELTRADPEQRHVPLRRRSEWKWAADRAAIVSRWNWLQAHVSDLEYRIRQQTDIYKQIRANKGLIVLGEVPPPEHTTDLFLPLSSEVKTDHGTDKLIESVSQPLENHGAPIIGHISESLSTKSCGALRPVNGVINTLQPVLADHIPGDSSDAEEQLHKKQRLNLVSSSSDGTCVAARTRPVLSCKKRRLVRPNSIVPLSKKVHRNSTIRPGCDVNPSCALCGSGSINTMPPEIHYEAPLLERLSQLDSCVHPVLAFPDDVPTSLHFQSMLKSQWQNKPFDKIKPPKKLSLKHRAPMPGSLPDSARKDRHKLVSSFLTTAKLSHHQTRPDRTHRQHLDDVGAVPMVERVTAPKAERLLNPPPPVHDPNHSKMRLRDHSSERSEVLKHHTDMSSSSYLAATHHPPHSPLVRQLSTSSDSPAPASSSSQVTASTSQQPVRRRRGESSFDINNIVIPMSVAATTRVEKLQYKEILTPSWREVDLQSLKGSPDEENEEIEDLSDAAFAALHAKCEEMERARWLWTTSVPPQRRGSRSYRSSDGRTTPQLGSANPSTPQPASPDVSSSHSLSEYSHGQSPRSPISPELHSAPLTPVARDTPRHLASEDTRCSTPELGLDEQSVQPWERRTFPLAHSPQAECEDQLDAQERAARCTRRTSGSKTGRETEAAPTSPPIVPLKSRHLVAAATAQRPTHR
partner: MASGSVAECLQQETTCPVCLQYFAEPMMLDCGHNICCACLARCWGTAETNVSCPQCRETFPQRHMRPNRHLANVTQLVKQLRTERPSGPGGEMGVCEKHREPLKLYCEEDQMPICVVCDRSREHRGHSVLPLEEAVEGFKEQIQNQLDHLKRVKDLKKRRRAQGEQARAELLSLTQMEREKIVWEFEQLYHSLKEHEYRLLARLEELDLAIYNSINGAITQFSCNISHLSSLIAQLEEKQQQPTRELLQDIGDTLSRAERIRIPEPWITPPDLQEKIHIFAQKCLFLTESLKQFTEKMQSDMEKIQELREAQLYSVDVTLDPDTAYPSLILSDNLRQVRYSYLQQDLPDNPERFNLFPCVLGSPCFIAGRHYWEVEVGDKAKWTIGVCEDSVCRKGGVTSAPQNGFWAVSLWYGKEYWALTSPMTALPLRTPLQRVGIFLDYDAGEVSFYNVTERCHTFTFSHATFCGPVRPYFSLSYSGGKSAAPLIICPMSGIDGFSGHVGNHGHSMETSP
B3: CDK5 regulatory subunit-associated protein 3 (Homo sapiens), Q96JB5 (parent)
chain: MEDHQHVPIDIQTSKLLDWLVDRRHCSLKWQSLVLTIREKINAAIQDMPESEEIAQLLSGSYIHYFHCLRILDLLKGTEASTKNIFGRYSSQRMKDWQEIIALYEKDNTYLVELSSLLVRNVNYEIPSLKKQIAKCQQLQQEYSRKEEECQAGAAEMREQFYHSCKQYGITGENVRGELLALVKDLPSQLAEIGAAAQQSLGEAIDVYQASVGFVCESPTEQVLPMLRFVQKRGNSTVYEWRTGTEPSVVERPHLEELPEQVAEDAIDWGDFGVEAVSEGTDSGISAEAAGIDWGIFPESDSKDPGGDGIDWGDDAVALQITVLEAGTQAPEGVARGPDALTLLEYTETRNQFLDELMELEIFLAQRAVELSEEADVLSVSQFQLAPAILQGQTKEKMVTMVSVLEDLIGKLTSLQLQHLFMILASPRYVDRVTEFLQQKLKQSQLLALKKELMVQKQQEALEEQAALEPKLDLLLEKTKELQKLIEADISKRYSGRPVNLMGTSL
partner: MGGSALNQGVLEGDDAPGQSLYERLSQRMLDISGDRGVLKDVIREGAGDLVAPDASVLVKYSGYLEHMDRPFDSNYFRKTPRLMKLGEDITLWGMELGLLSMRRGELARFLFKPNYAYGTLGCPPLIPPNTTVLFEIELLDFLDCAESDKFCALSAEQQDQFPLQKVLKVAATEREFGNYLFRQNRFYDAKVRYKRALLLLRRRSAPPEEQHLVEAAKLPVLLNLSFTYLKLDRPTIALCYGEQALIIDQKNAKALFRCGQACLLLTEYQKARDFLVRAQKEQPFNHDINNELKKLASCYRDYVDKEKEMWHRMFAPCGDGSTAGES
B4: U3 small nucleolar RNA-associated protein 14 homolog C (Homo sapiens), Q5TAP6 (parent)
chain: MNVNQVAENLALSHQEELVDLPKNYPLSENEDEGDSDGERKHQKLLEAIISLDGKNRRKLAERSEASLKVSEFSVSSEGSGEKLGLADLLEPVKTSSSLATVKKQLNRVKSKKVVELPLNKEKIEQIHREVAFSKTSQVLSKWDPIILKNQQAEQLVFPLGKEQPAIAPIEHALSGWKARTPLEQEIFNLLHKNKQPVTDPLLTPMEKASLQAMSLEEAKMHRAELQRARALQSYYEAKARKEKKIKSKKYHKVVKKGKAKKALKEFEQLQKVNPTVALEEMEKIENARMMERMSLKHQNSGKWAKSKAIMAKYDLEARQAMQEQLAKNKELTQKLQVASESEEEEGGTEVEELLVPHVANEVQMNVDGPNPWMFRSCTSDTKEAATQEDPEQVPELAAHEVSASEAEERPVAEEEILLREFEERQSLRKRSELNQDAEPASSQETKDSSSQEVLSELRALSQKLKEKHQSRKQKASSEGTVPQVQREEPAPEEAEPLLLQRSERVQTLEELEELGKEDCFQNKELPRPVLEGQQSERTPNNRPDAPKEKKEKEQLINLQNFLTTQSPSVRSLAVPTIIEELEDEEERDQRQMIKEAFAGDDVIRDFLKEKREAVEASKPKDVDLTLPGWGEWGGVGLKPSAKKRRQFLIKAPEGPPRKDKNLPNVIISEKRNIHAAAHQVQVLPYPFTHHRQFERTIQTPIGSTWNTQRAFQKLTTPKVVTKPGHIIKPIKAEDVGYQSSSRSDLPVIQRNPKRITTRHNKEEKL
partner: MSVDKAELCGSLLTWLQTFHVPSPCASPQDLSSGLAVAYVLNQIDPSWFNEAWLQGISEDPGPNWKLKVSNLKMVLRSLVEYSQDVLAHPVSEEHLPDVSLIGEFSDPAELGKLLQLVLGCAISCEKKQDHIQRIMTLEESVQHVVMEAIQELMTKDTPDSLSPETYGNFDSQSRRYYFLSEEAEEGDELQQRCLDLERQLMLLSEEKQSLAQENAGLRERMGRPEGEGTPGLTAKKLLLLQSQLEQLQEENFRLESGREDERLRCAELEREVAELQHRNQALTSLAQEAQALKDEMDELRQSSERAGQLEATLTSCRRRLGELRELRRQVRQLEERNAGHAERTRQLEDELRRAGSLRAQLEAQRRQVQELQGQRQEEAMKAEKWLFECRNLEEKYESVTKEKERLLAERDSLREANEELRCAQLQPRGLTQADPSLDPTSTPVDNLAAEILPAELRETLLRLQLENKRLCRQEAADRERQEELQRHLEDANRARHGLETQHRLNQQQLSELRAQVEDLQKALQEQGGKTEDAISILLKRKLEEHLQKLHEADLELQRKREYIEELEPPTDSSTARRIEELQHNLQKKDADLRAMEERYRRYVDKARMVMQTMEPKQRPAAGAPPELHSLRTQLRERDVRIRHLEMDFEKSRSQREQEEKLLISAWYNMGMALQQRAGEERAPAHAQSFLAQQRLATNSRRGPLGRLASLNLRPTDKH

Variants of: B1
Conditions: with cul3_human CUL3, Q13618

Row | effect of a mutation on the interaction | Variant
1 | disrupting interaction strength | C164F

Variants of: B2
Conditions: with tri27_human TRIM27, P14373

Row | effect of a mutation on the interaction | Variant
2 | with no effect | K104T
3 | with no effect | N225D

Variants of: B3
Conditions: with fkbp6_human FKBP6, O75344

Row | effect of a mutation on the interaction | Variant
4 | with no effect | E173K

Variants of: B4
Conditions: with hook2_human HOOK2, Q96ED9

Row | effect of a mutation on the interaction | Variant
5 | with no effect | V109D
6 | with no effect | K247E
